This is an account of results in patent US20120238503A1.

Ends that are not written are not given here.

In this experiment the target is α3β1 integrin on PC12 cells (rat (PC12 cells)) (UniProt P49134). The experiment can be described thus: cell-based or functional assay.
Chain of α3β1 integrin on PC12 cells (rat (PC12 cells)) (P49134 21-798): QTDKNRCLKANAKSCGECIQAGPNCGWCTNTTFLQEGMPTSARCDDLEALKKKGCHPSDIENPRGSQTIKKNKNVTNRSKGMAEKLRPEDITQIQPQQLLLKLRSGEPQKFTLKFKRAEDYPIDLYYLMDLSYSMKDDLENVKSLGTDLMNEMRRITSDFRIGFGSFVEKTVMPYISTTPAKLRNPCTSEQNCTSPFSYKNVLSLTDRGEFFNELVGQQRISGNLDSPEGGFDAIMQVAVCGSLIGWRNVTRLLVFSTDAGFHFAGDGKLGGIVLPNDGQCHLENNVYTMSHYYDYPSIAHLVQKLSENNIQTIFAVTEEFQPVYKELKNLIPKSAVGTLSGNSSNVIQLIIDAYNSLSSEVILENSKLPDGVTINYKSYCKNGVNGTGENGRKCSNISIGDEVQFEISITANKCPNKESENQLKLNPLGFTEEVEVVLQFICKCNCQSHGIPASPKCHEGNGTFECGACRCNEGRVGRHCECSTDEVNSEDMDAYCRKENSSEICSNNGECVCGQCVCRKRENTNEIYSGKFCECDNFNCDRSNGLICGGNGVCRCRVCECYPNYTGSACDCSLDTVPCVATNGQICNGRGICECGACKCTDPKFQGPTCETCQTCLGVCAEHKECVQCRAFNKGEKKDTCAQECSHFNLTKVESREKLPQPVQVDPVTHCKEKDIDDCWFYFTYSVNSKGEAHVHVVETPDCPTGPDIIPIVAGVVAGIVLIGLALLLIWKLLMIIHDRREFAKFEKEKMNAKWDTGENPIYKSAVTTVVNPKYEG

For RNIPPFEGCIWN-NH2 [Ln2-LG3-P2 peptide (…)], the inhibition of PC12 cell adhesion to coated rLG3 (25 µg/mL) by soluble peptide is 40 % inhibition.
